Columns and labels:
HEK-293 cells = test: Optimum inducer concentration to induce expression; format: cell-based, human
Pro10 cells = test: Rep78 expression via western blot under second generation forskolin-inducible promoters; format: cell-based; details: for Rep78 expression in the presence of forskolin: 10 μM forskolin, 24 hrs; for Rep78 expression in the presence of forskolin / Rep78 expression in the absence of forskolin: western blot; for Rep78 expression in the absence of forskolin: DMSO control
Method: HEK293-T (ATCC-CRL-3216) cell lines were maintained in DMEM plus 10% FBS as described for HEK293 cells. Plasmids to be transfected were linearised and transfected using Lipofectamine 2000 (Invitrogen, 11668027) as per the manufacturer's instructions. The cells were then cultured for 48 hrs in non-selective medium before being switched to selective medium (standard medium plus Blasticidin 5 ug/ml (Thermofisher, A1113902).
Each of the promoters were tested for their ability to induce expression of the Rep78 protein. To eliminate the expression of Rep52, we have mutated the ATG start codon in Rep52 to an AGG. All constructs were synthesized by Genewiz. Pro10 cells were cultured and transfected using lipofectamine 2000 as previously described. 24 hrs after transfection 10 μM forskolin was added to the cells. Control wells were given DMSO as forskolin was dissolved in this carrier. After another 24 hrs the cells were then lysed and lysates were analysed for Rep78 expression via western blot.
Cells are collected in Eppendorf tubes and centrifuged at 300 g for 5 mins in a tabletop centrifuge. Supernatants are discarded and cell pellets are lysed in 1× radioimmunoprecipitation assay (RIPA) buffer, which is made up of RIPA Lysis & Extraction Buffer (Thermofisher, UK, 89900), 100×Halt Protease Inhibitor (Thermofisher, UK, 78445). After addition of the cell lysis buffer all samples are constantly kept on ice. The samples are vortexed and either stored at −20° C. overnight or kept on ice for 30 mins prior to centrifugation at full speed (21,130 g) in the tabletop centrifuge for 20 mins at 4° C. for the removal of any insoluble material. Cell lysates are mixed with 4×LDS loading sample buffer and 10× sample reducing agent (ThermoFisher, UK, NP0007 and NP0004); they are briefly spun down, heated to 95° C. for 10 mins, allowed to cool to 10° C., briefly spun down again and then separated on polyacrylamide gels (NuPAGE Novex 4-12% Bis-Tris Gels, 1.0 mm; ThermoFisher UK, NP0324BOX), which are allowed to reach room temperature before use. The PageRuler™ Prestained NIR Protein Ladder (ThermoFisher, UK, 26635) is run alongside the cell lysates for size comparison purposes. Gels are run at 150V for 1 hour 15 mins using ThermoFisher's XCell SureLock Mini-Cell system. Gels are then transferred to nitrocellulose membranes using the iBlot 2 Dry Blotting System, p0 programme, (ThermoFisher, UK) according to the manufacturer's instructions. Initially, a total protein stain is performed following the manufacturer's instructions (Revert™ 700 Total Protein Stain for Western Blot Normalization; Licor, UK, 926-11011), and this is followed by immunoblotting of the membranes. The membranes are specifically transferred to falcon tubes where they are first blocked with the Licor Odyssey® blocking buffer at room temperature for 1 hour, followed by probing with suitable primary antibodies resuspended in the Licor Odyssey® blocking buffer in a cold room set at 4° C. overnight. The following day membranes are washed 3× in PBS-T (0.05%) for 5 mins each time and then probed with a suitable secondary antibody for 1.5 hours at room temperature. Secondary antibodies typically contain a fluorescent tag for visualisation purposes. Membranes are washed once again 2× in PBS-T (0.05%) for 5 mins each time followed by a final wash in 1×PBS for 5 mins. The membranes are imaged using an Odyssey® Fc Licor imaging system.
The antibodies used in this experiment were: primary antibody: anti-Rep antibody 303.9 clone (Progen, 61069) and Secondary antibody: LICOR anti-mouse 800 nm (LICOR, 926-32210).
We also tested the ability of the AAV helper functions to induce the activity of the best performing promoter FORN-pJB42. Transfections were carried out as previously described. Conditions are as follows, FORN-pJB42 controlling expression of Rep78 was transfected with and without the adenovirus helper functions. […]

Molecule | Concentration determined to be optimum to induce expression (HEK-293 cells) | Rep78 expression in the presence of forskolin (Pro10 cells) | Rep78 expression in the absence of forskolin (Pro10 cells) | Promoter activity (Rep78) in the presence of helper functions, absence of forskolin (Pro10 cells; adenovirus helper functions (pHelper), DMSO) | Promoter activity (Rep78) in the presence of helper functions and forskolin (Pro10 cells; adenovirus helper functions and 10 μM forskolin)
C=C[C@@]1(C)CC(=O)[C@]2(O)[C@@]3(C)[C@@H](O)CCC(C)(C)[C@@H]3[C@H](O)[C@H](OC(C)=O)[C@@]2(C)O1 [Forskolin] | about 18 μM |  |  |  | 
Synp-FORNEW: synthetic forskolin-inducible promoter, SEQ ID NO: 62; 7×cAMPRE and 6×AP1(3) with YB-TATA minimal promoter (nucleic acid, Synp-FORNEW, 7×cAMPRE and 6×AP1(3) with YB-TATA minimal promoter) DNA: AATAAAATATCTTTATTTTCATTACATCTGTGTGTTGGTTTTTTGTGTGCCATTGACGTCACGATTTGACGTCAACCATTGACGTCACGATTTGACGTCAACCATTGACGTCACGATTTGACGTCACGATTTGACGTCAACCATTGACTCACGATTTGACTCAACCATTGACTCACGATTTGACTCAACCATTGACTCACGATTTGACTCACGATTGCGATTAATCCATATGCTCTAGAGGGTATATAATGGGGGCCACTAGTCTACTACCAGAAAGCTTGGTACCGAGCTCGGATCCAGCCACC |  | strong expression | no Rep78 expression |  | 
Synp-FORNTATAm6a: synthetic forskolin-inducible promoter, SEQ ID NO: 74; 7×cAMPRE and 6×AP1(3) with TATA-m6A minimal promoter (nucleic acid, Synp-FORNTATAm6a, 7×cAMPRE and 6×AP1(3) with TATA-m6A minimal promoter) DNA: AATAAAATATCTTTATTTTCATTACATCTGTGTGTTGGTTTTTTGTGTGCCATTGACGTCACGATTTGACGTCAACCATTGACGTCACGATTTGACGTCAACCATTGACGTCACGATTTGACGTCACGATTTGACGTCAACCATTGACTCACGATTTGACTCAACCATTGACTCACGATTTGACTCAACCATTGACTCACGATTTGACTCACGATTTATAAAAGGCAGAGCTCGTTTAGTGAACCGAAGCTTGGACTAAAGCGGACTTGTCTCGAG |  | strong expression | no Rep78 expression |  | 
FORN-pJB42: synthetic forskolin-inducible promoter, SEQ ID NO: 73; 7×cAMPRE and 6×AP1(3) with pJB42 minimal promoter (nucleic acid, Synp-FORNpJB42, 7×cAMPRE and 6×AP1(3) with pJB42 minimal promoter) DNA: AATAAAATATCTTTATTTTCATTACATCTGTGTGTTGGTTTTTTGTGTGCCATTGACGTCACGATTTGACGTCAACCATTGACGTCACGATTTGACGTCAACCATTGACGTCACGATTTGACGTCACGATTTGACGTCAACCATTGACTCACGATTTGACTCAACCATTGACTCACGATTTGACTCAACCATTGACTCACGATTTGACTCACGATTCTGACAAATTCAGTATAAAAGCTTGGGGCTGGGGCCGAGCACTGGGGACTTTGAGGGTGGCCAGGCCAGCGTAGGAGGCCAGCGTAGGATCCTGCTGGGAGCGGGGAACTGAGGGAAGCGACGCCGAGAAAGCAGGCGTACCACGGAGGGAGAGAAAAGCTCCGGAAGCCCAGCAGCGGCCACC |  | strong expression | no Rep78 expression | activated | full activity

Source: US20230374526A1, “FORSKOLIN-INDUCIBLE PROMOTERS AND HYPOXIA-INDUCIBLE PROMOTERS” (ASKLEPIOS BIOPHARMACEUTICAL, INC., priority 2020, published 2023)
